# ± gives the uncertainty stated by the source.
# B1: Protein C-ets-1, residues 55 to 135; numbered along this chain, P14921 (parent)
# chain: GFTKEQQRLGIPKDPRQWTETHVRDWVMWAVNEFSLKGVDFQKFCMNGAALCALGKDCFLELAPDFVGDILWEHLEILQKE
# B2: 3'-5' exoribonuclease 1, residues 65 to 114; numbered along this chain, Q8IV48 (parent)
# chain: VYKEIAITNGCINRMSKEELRAKLSEFKLETRGVKDVLKKRLKNYYKKQK
# Variants of: B1
# Assay: abundance fitness (aPCA) (normalised: wild type 0, dead -1); higher = more abundant; growth selection in yeast, the domain comes from the species named
# Details: Homo sapiens
row,Variant,abundance fitness
1,T3H,-0.066 ± 0.094
2,T3M,-0.028 ± 0.072
3,T3P,-0.177 ± 0.045
4,T3A,-0.032 ± 0.042
5,T3G,-0.042 ± 0.041
6,T3N,-0.121 ± 0.081
7,T3V,-0.063 ± 0.041
8,T3K,0.025 ± 0.091
9,T3Q,-0.032 ± 0.067
10,T3C,-0.075 ± 0.068
11,T3L,-0.055 ± 0.041
12,T3R,-0.082 ± 0.037
13,T3W,-0.031 ± 0.075
14,T3E,0.011 ± 0.081
15,T3I,-0.005 ± 0.049
16,T3Y,-0.206 ± 0.1
17,T3F,-0.029 ± 0.084
18,Q7L,-0.02 ± 0.034
19,Q7P,-0.294 ± 0.048
20,Q7K,0.074 ± 0.068
21,Q7N,-0.026 ± 0.13
22,Q7M,0.04 ± 0.057
23,Q7G,-0.047 ± 0.029
24,Q7R,-0.034 ± 0.031
25,Q7W,-0.133 ± 0.048
26,Q7A,-0.055 ± 0.031

row,Variant,abundance fitness
1,Q7S,-0.069 ± 0.039
2,Q7E,0.089 ± 0.052
3,Q7F,-0.121 ± 0.084
4,Q7I,0.062 ± 0.086
5,Q7T,-0.06 ± 0.047
6,Q7D,0 ± 0.075
7,Q7V,-0.028 ± 0.033
8,Q7C,-0.256 ± 0.06
9,K4P,-0.325 ± 0.068
10,K4F,0.038 ± 0.12
11,K4G,-0.054 ± 0.038
12,K4V,-0.098 ± 0.036
13,K4H,-0.148 ± 0.076
14,K4N,0.024 ± 0.11
15,K4I,0.037 ± 0.11
16,K4L,-0.085 ± 0.042
17,K4Q,-0.031 ± 0.054
18,K4E,0.008 ± 0.059
19,K4A,-0.178 ± 0.051
20,K4Y,-0.039 ± 0.092
21,K4C,-0.108 ± 0.065
22,K4W,-0.207 ± 0.062
23,K4R,-0.071 ± 0.036
24,K4T,-0.071 ± 0.066
25,K4M,-0.043 ± 0.053
26,K4S,-0.055 ± 0.043

row,Variant,abundance fitness
1,F2C,-0.408 ± 0.08
2,F2T,-0.23 ± 0.12
3,F2I,-0.355 ± 0.11
4,F2H,-0.43 ± 0.16
5,F2G,-0.272 ± 0.04
6,F2V,-0.289 ± 0.047
7,F2E,-0.345 ± 0.1
8,F2R,-0.298 ± 0.052
9,F2P,-0.398 ± 0.074
10,F2N,-0.141 ± 0.12
11,F2Q,-0.522 ± 0.15
12,F2D,-0.143 ± 0.09
13,F2A,-0.24 ± 0.057
14,F2S,-0.365 ± 0.048
15,F2L,-0.343 ± 0.046
16,F2K,-0.232 ± 0.14
17,F2Y,-0.161 ± 0.076
18,F2M,-0.238 ± 0.097
19,E5M,-0.018 ± 0.059
20,E5R,-0.132 ± 0.035
21,E5I,-0.105 ± 0.098
22,E5Q,-0.123 ± 0.061
23,E5V,-0.05 ± 0.039
24,E5F,-0.088 ± 0.07
25,E5D,-0.216 ± 0.085
26,E5G,-0.253 ± 0.028

row,Variant,abundance fitness
1,E5T,-0.117 ± 0.069
2,E5Y,-0.045 ± 0.1
3,E5W,-0.186 ± 0.066
4,E5A,-0.062 ± 0.045
5,E5L,-0.108 ± 0.044
6,E5S,-0.245 ± 0.046
7,E5K,-0.183 ± 0.06
8,E5C,-0.129 ± 0.077
9,E5H,-0.087 ± 0.095
10,R8G,-0.112 ± 0.03
11,R8F,-0.091 ± 0.074
12,R8D,-0.093 ± 0.066
13,R8K,-0.062 ± 0.061
14,R8C,-0.154 ± 0.052
15,R8I,-0.17 ± 0.12
16,R8E,-0.074 ± 0.048
17,R8H,-0.095 ± 0.058
18,Q6I,0.034 ± 0.084
19,Q6M,0.024 ± 0.066
20,Q6Y,-0.058 ± 0.078
21,Q6A,0.019 ± 0.043
22,Q6N,-0.136 ± 0.2
23,Q6E,-0.164 ± 0.047
24,Q6W,-0.1 ± 0.044
25,Q6V,-0.096 ± 0.027
26,Q6T,-0.102 ± 0.062

row,Variant,abundance fitness
1,Q6H,-0.235 ± 0.047
2,Q6D,-0.277 ± 0.063
3,Q6R,-0.041 ± 0.031
4,Q6G,-0.101 ± 0.028
5,Q6F,-0.075 ± 0.088
6,Q6K,-0.143 ± 0.08
7,Q6L,-0.006 ± 0.043
8,Q6C,-0.113 ± 0.053
9,Q6P,-0.389 ± 0.062
10,Q6S,-0.005 ± 0.04
11,G1M,-0.186 ± 0.16
12,G1C,-0.21 ± 0.11
13,G1W,-0.248 ± 0.083
14,G1T,-0.262 ± 0.17
15,G1D,0.074 ± 0.062
16,G1N,0.143 ± 0.27
17,G1V,-0.108 ± 0.055
18,G1I,-0.077 ± 0.16
19,G1Y,-0.114 ± 0.2
20,G1L,-0.157 ± 0.092
21,G1R,-0.191 ± 0.067
22,G1K,0.049 ± 0.24
23,G1S,-0.039 ± 0.065
24,G1A,-0.091 ± 0.076
25,G1E,-0.042 ± 0.068

# Variants of: B2
# Assay: as above
# Details: Homo sapiens
row,Variant,abundance fitness
1,E19V,-0.379 ± 0.038
2,A6C,-0.172 ± 0.13
3,A6D,-0.183 ± 0.43
4,A6V,0.011 ± 0.12
5,K28M,-0.194 ± 0.055
6,K28A,-0.141 ± 0.054
7,K28P,-0.963 ± 0.083
8,K28V,-0.817 ± 0.058
9,K28H,-0.057 ± 0.06
10,K28L,-0.732 ± 0.053
11,K28D,-0.156 ± 0.07
12,K47D,-0.643 ± 0.081
13,K47V,-0.422 ± 0.04
14,K47A,-0.288 ± 0.044
15,K47N,-0.155 ± 0.063
16,K47Y,-0.533 ± 0.068
17,E26V,-0.362 ± 0.054
18,L29C,-0.256 ± 0.041
19,L29M,-0.198 ± 0.051

row,Variant,abundance fitness
1,L29D,-0.878 ± 0.062
2,L29I,-0.349 ± 0.041
3,N44H,-0.065 ± 0.053
4,N44R,0.017 ± 0.038
5,N44K,0.05 ± 0.051
6,N44W,-0.376 ± 0.054
7,N44S,-0.087 ± 0.04
8,G10E,-0.155 ± 0.046
9,G10A,-0.118 ± 0.035
10,G10I,-0.34 ± 0.07
11,G10N,-0.147 ± 0.076
12,R41F,-0.887 ± 0.18
13,R41S,-0.641 ± 0.044
14,R41I,-0.865 ± 0.18
15,Y46S,-0.277 ± 0.04
16,Y46T,-0.125 ± 0.047
17,K35T,-0.314 ± 0.041
18,K35V,-0.262 ± 0.044
19,K35G,-0.845 ± 0.052
